The chains are these.
B1: Azoarcus group I ribozyme (parent)
chain: GUGCCUUGCGCCGGGAAACCACGCAAGGGAUGGUGUCAAAUUCGGCGAAACCUAAGCGCCCGCCCGGGCGUAUGGCAACGCCGAGCCAAGCUUCGGCGCCUGCGCCGAUGAAGGUGUAGAGACUAGACGGCACCCACCUAAGGCAAACGCUAUGGUGAAGGCAUAGUCCAGGGAGUGGCGAAAGUCACACAAACCGG

Reverse-splicing fitness data for 84 variants are collected here from the RNAGym collection of RNA variant scans (doi:10.1093/molbev/msab373).

Variants of B1 are the subject of the data set. In words: reverse-splicing fitness (ratio to wild type); higher = more active; in vitro selection; Mg2+ level not given. A digest of the protocol:
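An in vitro group I ribozyme library with randomized positions was T7-transcribed and gel-purified. In triplicate, 10 pmol RNA in EPPS pH 7.5 was reacted with 50 pmoles of a 30-nt RNA substrate for 1 h at 37 °C across several added MgCl2 levels (1–48 mM), then stopped with EDTA. Products were reverse transcribed from a substrate-complementary primer, PCR-amplified and sequenced (HiSeq 4000). Fitness is a variant's read proportion after selection over that before, normalised to wild type.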
In the case of A111U A145G C150U C169U, the reverse-splicing fitness was 0.0923.

Turning to A111U A145G C150U C169A, the reverse-splicing fitness was 0.025.

In the case of A111U A145G C150U C169G, the reverse-splicing fitness worked out at 0.0498.

As to A111U A145C C150A C169A U176A, the reverse-splicing fitness stood at 0.0128.

Take A111U A145C C150A C169A U176C: the reverse-splicing fitness is 0.00656.

In the case of A111U A145C C150A C169A U176G, the reverse-splicing fitness was 0.00617.

A111U C150U C169G U176C: the reverse-splicing fitness amounted to 0.0215.

With A111U C150U C169G U176G, the reverse-splicing fitness was found to be 0.00719.

Turning to A111U C150U C169G U176A, the reverse-splicing fitness worked out at 0.0177.

In the case of A111U A145U C150G C169G, the reverse-splicing fitness is 0.011.

On to A111U A145U C150G C169U, for which the reverse-splicing fitness was determined as 0.0168.

A111U A145U C150G C169A: the reverse-splicing fitness turned out to be 0.0102.

For the variant A111U A145U C150U C169A U176A, the reverse-splicing fitness was found to be 0.0144.

As for A111U A145U C150U C169A U176G, the reverse-splicing fitness came to 0.00694.

Consider A111U A145U C150U C169A U176C, for which the reverse-splicing fitness stood at 0.0104.

Turning to A111U U176G, the reverse-splicing fitness came to 0.288.

For A111U U176A, the reverse-splicing fitness came out at 0.823.

As to A111U U176C, the reverse-splicing fitness amounted to 0.793.

Regarding A111U A145C, the reverse-splicing fitness turned out to be 0.974.

For A111U A145U, the reverse-splicing fitness was found to be 0.924.

For A111U A145G, the reverse-splicing fitness was 0.921.

A111U A145U C150U: the reverse-splicing fitness was found to be 0.88.

As for A111U A145U C150A, the reverse-splicing fitness was 0.379.

As for A111U A145U C150G, the reverse-splicing fitness amounted to 0.41.

As to A111U A145G C150U C169U U176G, the reverse-splicing fitness stood at 0.00652.

Consider A111U A145G C150U C169U U176C, for which the reverse-splicing fitness came to 0.0314.

Consider A111U A145G C150U C169U U176A, for which the reverse-splicing fitness is 0.025.

As to A111U A120U C150G C169A U176C, the reverse-splicing fitness was 0.0037.

For A111U A120U C150G C169A U176A, the reverse-splicing fitness was 0.00451.

Consider A111U A120U C150G C169A U176G, for which the reverse-splicing fitness turned out to be 0.00232.

In the case of A111U A145C C150A U176C, the reverse-splicing fitness is 0.127.

For A111U A145C C150A U176A, the reverse-splicing fitness came out at 0.103.

For the variant A111U A145C C150A U176G, the reverse-splicing fitness was 0.0517.

As for A111U A145C C150G C169U U176C, the reverse-splicing fitness worked out at 0.0128.

As to A111U A145C C150G C169U U176A, the reverse-splicing fitness was 0.00903.

A111U A145C C150G C169U U176G: the reverse-splicing fitness turned out to be 0.00557.

Consider A111U A120U C150G C169G U176A, for which the reverse-splicing fitness stood at 0.00371.

With A111U A120U C150G C169G U176C, the reverse-splicing fitness turned out to be 0.00285.

For the variant A111U A120U C150G C169G U176G, the reverse-splicing fitness is 0.00237.

As for A111U C150A U176C, the reverse-splicing fitness turned out to be 0.251.

Take A111U C150A U176A: the reverse-splicing fitness is 0.207.

In the case of A111U C150A U176G, the reverse-splicing fitness was found to be 0.0846.

Consider A120C A145C C150A C169U U176C, for which the reverse-splicing fitness is 0.032.

Regarding A120C A145C C150A C169U U176A, the reverse-splicing fitness was 0.0342.

Regarding A120C A145C C150A C169U U176G, the reverse-splicing fitness came to 0.00561.

On to A111U A145G C169A, for which the reverse-splicing fitness came out at 0.0306.

As to A111U A145G C169G, the reverse-splicing fitness is 0.0699.

As to A111U A145G C169U, the reverse-splicing fitness came out at 0.111.

Turning to A111U A120U C169A U176A, the reverse-splicing fitness is 0.00255.

Regarding A111U A120U C169A U176C, the reverse-splicing fitness came out at 0.00373.

On to A111U A120U C169A U176G, for which the reverse-splicing fitness was determined as 0.00214.

Take A111U A145U C150U C169G U176A: the reverse-splicing fitness amounted to 0.016.

Take A111U A145U C150U C169G U176G: the reverse-splicing fitness came to 0.00643.

On to A111U A145U C150U C169G U176C, for which the reverse-splicing fitness was found to be 0.0192.

Regarding A111U A120U C150A U176G, the reverse-splicing fitness is 0.0103.

With A111U A120U C150A U176A, the reverse-splicing fitness is 0.0294.

In the case of A111U A120U C150A U176C, the reverse-splicing fitness worked out at 0.0318.

Consider A111U A120U C150U, for which the reverse-splicing fitness turned out to be 0.374.

In the case of A111U A120U C150A, the reverse-splicing fitness amounted to 0.0595.

With A111U A120U C150G, the reverse-splicing fitness was 0.045.

Consider A111U A120U C150G C169U U176C, for which the reverse-splicing fitness was found to be 0.00454.

Turning to A111U A120U C150G C169U U176G, the reverse-splicing fitness is 0.0029.

Consider A111U A120U C150G C169U U176A, for which the reverse-splicing fitness amounted to 0.00272.

As to A111U A145U C150U U176G, the reverse-splicing fitness was 0.266.

As to A111U A145U C150U U176C, the reverse-splicing fitness amounted to 0.641.

For A111U A145U C150U U176A, the reverse-splicing fitness came to 0.632.

For the variant A111U A120U C150A C169G U176A, the reverse-splicing fitness was 0.00698.

Turning to A111U A120U C150A C169G U176C, the reverse-splicing fitness came to 0.00445.

Regarding A111U A120U C150A C169G U176G, the reverse-splicing fitness came to 0.00254.

As to A111U A145G C150A U176G, the reverse-splicing fitness was determined as 0.0951.

On to A111U A145G C150A U176C, for which the reverse-splicing fitness is 0.299.

For the variant A111U A145G C150A U176A, the reverse-splicing fitness worked out at 0.238.

Take A111U A145C U176G: the reverse-splicing fitness worked out at 0.329.

For the variant A111U A145C U176A, the reverse-splicing fitness came to 0.757.

Consider A111U A145C U176C, for which the reverse-splicing fitness is 0.706.

Regarding A111U C150G C169G U176A, the reverse-splicing fitness was 0.00681.

A111U C150G C169G U176G: the reverse-splicing fitness came out at 0.00515.

For A111U C150G C169G U176C, the reverse-splicing fitness is 0.00465.

With A111U A145C C150A C169G U176C, the reverse-splicing fitness worked out at 0.0127.

For the variant A111U A145C C150A C169G U176A, the reverse-splicing fitness came to 0.0227.

Regarding A111U A145C C150A C169G U176G, the reverse-splicing fitness was 0.00622.

Take A111U A145U C150A C169A U176C: the reverse-splicing fitness stood at 0.00995.

Consider A111U A145U C150A C169A U176G, for which the reverse-splicing fitness was found to be 0.00582.

Consider A111U A145U C150A C169A U176A, for which the reverse-splicing fitness is 0.0131.
